By Km is commonly meant the concentration of substrate that gives half-maximal velocity.

One series concerns the target T1, KdlD, Kdl dehydratase (Cupriavidus necator, UniProt Q0K4R0).
T1 sequence (Q0K4R0 1-310): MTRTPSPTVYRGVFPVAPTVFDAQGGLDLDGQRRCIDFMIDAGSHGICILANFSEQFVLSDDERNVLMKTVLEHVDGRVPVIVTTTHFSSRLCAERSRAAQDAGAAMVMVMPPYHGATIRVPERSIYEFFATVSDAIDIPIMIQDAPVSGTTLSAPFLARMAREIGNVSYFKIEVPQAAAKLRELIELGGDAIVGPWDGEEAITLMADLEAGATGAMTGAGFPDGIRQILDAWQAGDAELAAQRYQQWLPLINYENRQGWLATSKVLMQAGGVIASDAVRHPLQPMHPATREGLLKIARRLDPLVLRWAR
Description: in vitro activity assay. Type of series: biochemical.

Series [1] addresses T2, LyxD (H16_B0217), L-lyxonate dehydratase (Cupriavidus necator, UniProt Q0K4Q6).
T2 sequence (Q0K4Q6 1-391): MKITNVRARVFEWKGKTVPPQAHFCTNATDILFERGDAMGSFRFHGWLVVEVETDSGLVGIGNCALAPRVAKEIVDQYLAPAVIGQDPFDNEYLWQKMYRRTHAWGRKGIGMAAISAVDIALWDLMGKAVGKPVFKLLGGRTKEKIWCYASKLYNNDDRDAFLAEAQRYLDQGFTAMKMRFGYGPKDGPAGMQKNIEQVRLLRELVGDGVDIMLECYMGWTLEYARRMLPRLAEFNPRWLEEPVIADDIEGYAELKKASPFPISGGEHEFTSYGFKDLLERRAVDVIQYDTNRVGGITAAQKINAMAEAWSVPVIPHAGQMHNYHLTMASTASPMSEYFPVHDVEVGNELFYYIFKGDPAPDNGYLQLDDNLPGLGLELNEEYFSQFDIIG
The experiment in a line: in vitro activity assay. The class given is biochemical.

Series [2] addresses T3, KgsD (H16_B0212), Kgs dehydrogenase (Cupriavidus necator, UniProt Q0K4R1).
T3 sequence (Q0K4R1 1-527): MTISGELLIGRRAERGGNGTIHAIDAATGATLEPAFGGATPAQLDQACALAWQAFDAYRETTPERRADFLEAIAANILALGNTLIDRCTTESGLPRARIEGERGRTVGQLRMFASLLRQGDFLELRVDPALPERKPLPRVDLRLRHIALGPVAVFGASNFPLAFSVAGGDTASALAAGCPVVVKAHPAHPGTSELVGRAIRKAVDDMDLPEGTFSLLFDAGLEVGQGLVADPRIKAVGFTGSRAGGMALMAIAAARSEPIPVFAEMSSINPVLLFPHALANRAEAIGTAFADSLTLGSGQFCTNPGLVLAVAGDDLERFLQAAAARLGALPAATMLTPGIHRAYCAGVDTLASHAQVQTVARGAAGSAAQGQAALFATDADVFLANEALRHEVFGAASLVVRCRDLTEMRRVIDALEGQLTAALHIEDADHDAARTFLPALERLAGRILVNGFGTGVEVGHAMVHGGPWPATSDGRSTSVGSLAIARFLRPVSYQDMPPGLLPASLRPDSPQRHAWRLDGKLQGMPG
The experiment in a line: in vitro activity assay. Type of series: biochemical.

The target in series [3] is T4, ClxD (H16_B0216), Clx decarboxylase (Cupriavidus necator, UniProt Q0K4Q7).
T4 sequence (Q0K4Q7 1-338): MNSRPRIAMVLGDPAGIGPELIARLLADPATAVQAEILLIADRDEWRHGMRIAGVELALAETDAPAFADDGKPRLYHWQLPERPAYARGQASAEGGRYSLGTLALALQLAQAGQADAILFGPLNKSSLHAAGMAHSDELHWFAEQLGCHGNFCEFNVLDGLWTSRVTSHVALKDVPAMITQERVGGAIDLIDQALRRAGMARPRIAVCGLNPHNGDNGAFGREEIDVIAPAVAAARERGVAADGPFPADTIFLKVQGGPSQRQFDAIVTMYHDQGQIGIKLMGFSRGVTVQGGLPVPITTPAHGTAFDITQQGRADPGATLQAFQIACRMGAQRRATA
Description: in vitro decarboxylation assay. Type of series: biochemical. To be noted: with 2-carboxy-L-lyxonate; catalytic NAD+, regenerated in the reaction.

Substrate in series [4]: O=C1O[C@H]([C@@H](O)CO)C(=O)C1=O
The experiment in a line: in vitro enzyme kinetics. Type of series: biochemical, Cupriavidus necator.

Substrate in series [5]: O=C(O)C(=O)C(=O)[C@H](O)[C@@H](O)CO
The experiment in a line: in vitro enzyme kinetics. The class given is biochemical, Cupriavidus necator.

Substrate in series [6]: O=C(O)C(O)(C(=O)O)[C@H](O)[C@@H](O)CO
The experiment in a line: in vitro enzyme kinetics. The class given is biochemical, Cupriavidus necator. The following applies: NAD+ as catalytic cofactor.

As for `O=C(O)C(=O)C[C@@H](O)CO` [2-keto-3-deoxy-L-lyxonate], the “in vitro activity assay (dehydration)” value at KdlD, Kdl dehydratase was “heterologously expressed and display the predicted in vitro activities”. `O=C(O)[C@H](O)[C@H](O)[C@@H](O)CO` [L-lyxonate]: the “in vitro activity assay (dehydration)” value in series [1] was “heterologously expressed and display the predicted in vitro activities”. As for `O=CCCC(=O)C(=O)O` [α-ketoglutarate semialdehyde], the “in vitro activity assay (oxidation)” value in series [2] is “heterologously expressed and display the predicted in vitro activities”.

As to `NC(=O)c1ccc[n+]([C@@H]2O[C@H](COP(=O)(O)OP(=O)(O)OC[C@H]3O[C@@H](n4cnc5c(N)ncnc54)[C@H](O)[C@@H]3O)[C@@H](O)[C@H]2O)c1` [NAD^+], in series [3], the “in vitro decarboxylation assay; stopped-flow absorbance at 340 nm” value is recorded as “generates L-lyxonate (Figure 1C), even with sub-stoichiometric amounts of NAD^+”.

B1: DhaL (H16_A3012), DHA lactonase (Cupriavidus necator H16) (protein)
chain: MDTVRIFDERARELPLAGERLEQLACRATWSEGPVWLPDEDAVLWSDIPNDRILRWSAADGMSVWRTGAGFTNGHALEADGSLLHCSHGKRAIVRTHRSGARLGEDELVVSHYQGRRLNSPNDIVVKRDGTLWFTDPPYGILSDREGHRADPELRHNYVFRYDPAVGALEVASDLIEEPNGLAFSPDEDVLYVSDTSAALRDDGHHHIVAFDVVAGRVLANPRVFAVIAPGLPDGFRVDRRGWLFTSSASGVQVFHPDGTRLAHIPVPEKVGNLVFGGAEGDALFIAASTSLYRLRLGQRLT
As to B1, in the series “in vitro enzyme kinetics [4]”, the Km came to 490 ± 70 µM and the kcat is 8.0 ± 0.6 s−^1.

B2: DkgM (H16_B1217), DKG mutase (Cupriavidus necator H16) (protein)
chain: MESQWTAVLVEKFGHSFSAYELDGGERRFSVQLPDYPHEFVVDRERLCGYVGHYGVQTFAHAGDGGAAVIAVDLMRGAVRARLDCSPYHRIHGLQIDRQGRVYALSERDNMLVVFEAPLEHPVPDRAVPAGGVKSHLFVLSADGERAYVTNLLSHTVTLVHPYDATRAPRAAYAGRRPEGCCLSRDEAALYVASRDDHSLTRLDARTMEAVRTVPTGEDPTRIYWSPDDRLFVLNYGERSIRVFDPDTLAETGRVDTGARPIALAFHPADPSRAYIALNDHTVGQLDLPGLALRHAFTTGKEPDGLAILALPTR
As to B2, in the series “in vitro enzyme kinetics [5]”, the Km stood at 81 ± 7 µM and the kcat worked out at 0.6 ± 0.1 s−^1.

B3: ClxD (H16_B0216), Clx decarboxylase (Cupriavidus necator H16) (protein)
chain: T4 sequence (Q0K4Q7 1-338)
Regarding B3, in the series “in vitro enzyme kinetics [6]”, the Km was found to be 800 ± 400 µM and the kcat stood at 0.33 ± 0.08 s−^1.

Source of the values: publication PMC7059403 (Journal of the American Chemical Society, 2020).
